From patent publication US20070093443

T1: rat complement C2 (in plasma of treated rats), Q8CIP8
T1 chain: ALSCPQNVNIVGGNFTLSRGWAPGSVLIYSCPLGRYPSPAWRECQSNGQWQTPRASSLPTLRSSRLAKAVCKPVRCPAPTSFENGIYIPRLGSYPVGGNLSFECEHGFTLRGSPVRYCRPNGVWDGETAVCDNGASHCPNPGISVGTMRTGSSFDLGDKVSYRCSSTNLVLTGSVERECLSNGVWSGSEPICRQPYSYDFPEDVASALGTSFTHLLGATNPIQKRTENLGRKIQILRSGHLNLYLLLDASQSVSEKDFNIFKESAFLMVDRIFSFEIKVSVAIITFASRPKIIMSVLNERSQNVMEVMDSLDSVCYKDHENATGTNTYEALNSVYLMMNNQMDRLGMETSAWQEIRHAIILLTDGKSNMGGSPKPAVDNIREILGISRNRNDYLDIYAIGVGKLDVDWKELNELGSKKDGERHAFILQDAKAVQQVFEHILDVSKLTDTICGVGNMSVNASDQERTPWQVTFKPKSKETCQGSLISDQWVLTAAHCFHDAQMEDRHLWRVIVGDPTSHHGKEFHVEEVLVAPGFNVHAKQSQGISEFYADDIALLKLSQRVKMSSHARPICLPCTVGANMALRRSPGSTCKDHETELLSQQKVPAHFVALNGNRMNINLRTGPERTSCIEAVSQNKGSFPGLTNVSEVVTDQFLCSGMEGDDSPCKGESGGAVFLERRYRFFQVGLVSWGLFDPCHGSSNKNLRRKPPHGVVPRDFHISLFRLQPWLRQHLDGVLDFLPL

T2: Complement C4 (human)
T2 chain 1: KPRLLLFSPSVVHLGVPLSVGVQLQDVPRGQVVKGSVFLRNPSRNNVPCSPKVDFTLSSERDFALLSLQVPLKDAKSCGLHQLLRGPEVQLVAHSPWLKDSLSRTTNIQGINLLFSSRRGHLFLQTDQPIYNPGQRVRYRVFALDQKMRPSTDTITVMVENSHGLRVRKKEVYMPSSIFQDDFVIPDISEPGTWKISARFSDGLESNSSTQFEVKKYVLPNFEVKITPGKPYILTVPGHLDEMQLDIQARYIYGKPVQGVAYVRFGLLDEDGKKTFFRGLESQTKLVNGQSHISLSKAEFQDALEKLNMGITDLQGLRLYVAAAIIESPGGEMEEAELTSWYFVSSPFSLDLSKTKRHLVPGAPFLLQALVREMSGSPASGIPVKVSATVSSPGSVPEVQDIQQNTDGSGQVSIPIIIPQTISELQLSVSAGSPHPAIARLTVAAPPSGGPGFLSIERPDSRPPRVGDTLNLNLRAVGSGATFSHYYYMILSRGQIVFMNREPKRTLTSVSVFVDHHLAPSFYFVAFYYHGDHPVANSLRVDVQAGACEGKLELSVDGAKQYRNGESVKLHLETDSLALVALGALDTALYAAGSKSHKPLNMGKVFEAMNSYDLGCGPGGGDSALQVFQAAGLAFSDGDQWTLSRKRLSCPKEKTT
T2 chain 2: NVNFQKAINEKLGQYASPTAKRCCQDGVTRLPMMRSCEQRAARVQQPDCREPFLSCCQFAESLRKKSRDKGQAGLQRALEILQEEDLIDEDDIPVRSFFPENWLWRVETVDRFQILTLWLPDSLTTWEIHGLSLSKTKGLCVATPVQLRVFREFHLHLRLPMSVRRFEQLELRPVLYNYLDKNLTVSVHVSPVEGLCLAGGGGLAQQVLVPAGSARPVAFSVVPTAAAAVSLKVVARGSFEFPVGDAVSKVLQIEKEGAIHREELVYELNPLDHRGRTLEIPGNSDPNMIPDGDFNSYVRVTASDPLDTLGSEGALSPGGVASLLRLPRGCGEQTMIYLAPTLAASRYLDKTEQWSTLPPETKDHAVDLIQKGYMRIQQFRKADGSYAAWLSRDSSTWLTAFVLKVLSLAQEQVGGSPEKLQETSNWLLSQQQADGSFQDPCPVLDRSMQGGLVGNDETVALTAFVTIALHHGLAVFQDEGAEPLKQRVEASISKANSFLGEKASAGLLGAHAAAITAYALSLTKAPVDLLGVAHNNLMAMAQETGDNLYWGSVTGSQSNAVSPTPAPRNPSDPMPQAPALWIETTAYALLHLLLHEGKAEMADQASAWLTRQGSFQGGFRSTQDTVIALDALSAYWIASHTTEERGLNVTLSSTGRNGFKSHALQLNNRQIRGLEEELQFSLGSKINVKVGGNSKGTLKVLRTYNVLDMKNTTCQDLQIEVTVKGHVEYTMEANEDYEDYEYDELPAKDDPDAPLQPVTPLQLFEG
T2 chain 3: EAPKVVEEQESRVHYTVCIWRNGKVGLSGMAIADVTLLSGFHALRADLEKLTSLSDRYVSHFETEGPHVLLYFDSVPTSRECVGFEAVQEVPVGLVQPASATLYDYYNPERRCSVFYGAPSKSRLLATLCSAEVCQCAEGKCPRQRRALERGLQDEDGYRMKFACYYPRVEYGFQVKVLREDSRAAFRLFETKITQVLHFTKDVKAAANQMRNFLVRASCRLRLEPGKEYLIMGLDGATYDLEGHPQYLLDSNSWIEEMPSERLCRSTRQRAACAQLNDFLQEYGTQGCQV


Assays:
[1] = target: T1, rat complement C2 (in plasma of treated …)
Complement C4 (human) = target: T2, Complement C4 (human)

Complement C5 (human), sequence (chain, as listed by the source, chain 1 of 2): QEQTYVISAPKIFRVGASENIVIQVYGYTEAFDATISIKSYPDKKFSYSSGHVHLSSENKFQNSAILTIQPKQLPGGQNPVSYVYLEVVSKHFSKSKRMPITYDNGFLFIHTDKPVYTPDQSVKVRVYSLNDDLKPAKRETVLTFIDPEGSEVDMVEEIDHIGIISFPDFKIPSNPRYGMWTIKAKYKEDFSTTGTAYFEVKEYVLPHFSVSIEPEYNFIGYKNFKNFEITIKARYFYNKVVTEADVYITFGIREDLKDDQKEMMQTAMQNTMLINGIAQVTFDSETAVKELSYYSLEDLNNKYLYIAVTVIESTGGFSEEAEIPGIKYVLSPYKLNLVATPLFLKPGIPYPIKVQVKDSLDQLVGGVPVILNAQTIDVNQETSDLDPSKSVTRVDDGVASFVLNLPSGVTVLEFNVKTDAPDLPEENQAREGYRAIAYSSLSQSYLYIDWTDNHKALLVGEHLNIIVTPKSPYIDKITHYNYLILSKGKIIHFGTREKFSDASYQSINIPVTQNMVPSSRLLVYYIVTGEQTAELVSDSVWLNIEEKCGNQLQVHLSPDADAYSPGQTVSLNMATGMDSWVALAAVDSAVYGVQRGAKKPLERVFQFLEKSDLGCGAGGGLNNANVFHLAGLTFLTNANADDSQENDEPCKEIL
Complement C5 (human), sequence (chain, as listed by the source, chain 2 of 2): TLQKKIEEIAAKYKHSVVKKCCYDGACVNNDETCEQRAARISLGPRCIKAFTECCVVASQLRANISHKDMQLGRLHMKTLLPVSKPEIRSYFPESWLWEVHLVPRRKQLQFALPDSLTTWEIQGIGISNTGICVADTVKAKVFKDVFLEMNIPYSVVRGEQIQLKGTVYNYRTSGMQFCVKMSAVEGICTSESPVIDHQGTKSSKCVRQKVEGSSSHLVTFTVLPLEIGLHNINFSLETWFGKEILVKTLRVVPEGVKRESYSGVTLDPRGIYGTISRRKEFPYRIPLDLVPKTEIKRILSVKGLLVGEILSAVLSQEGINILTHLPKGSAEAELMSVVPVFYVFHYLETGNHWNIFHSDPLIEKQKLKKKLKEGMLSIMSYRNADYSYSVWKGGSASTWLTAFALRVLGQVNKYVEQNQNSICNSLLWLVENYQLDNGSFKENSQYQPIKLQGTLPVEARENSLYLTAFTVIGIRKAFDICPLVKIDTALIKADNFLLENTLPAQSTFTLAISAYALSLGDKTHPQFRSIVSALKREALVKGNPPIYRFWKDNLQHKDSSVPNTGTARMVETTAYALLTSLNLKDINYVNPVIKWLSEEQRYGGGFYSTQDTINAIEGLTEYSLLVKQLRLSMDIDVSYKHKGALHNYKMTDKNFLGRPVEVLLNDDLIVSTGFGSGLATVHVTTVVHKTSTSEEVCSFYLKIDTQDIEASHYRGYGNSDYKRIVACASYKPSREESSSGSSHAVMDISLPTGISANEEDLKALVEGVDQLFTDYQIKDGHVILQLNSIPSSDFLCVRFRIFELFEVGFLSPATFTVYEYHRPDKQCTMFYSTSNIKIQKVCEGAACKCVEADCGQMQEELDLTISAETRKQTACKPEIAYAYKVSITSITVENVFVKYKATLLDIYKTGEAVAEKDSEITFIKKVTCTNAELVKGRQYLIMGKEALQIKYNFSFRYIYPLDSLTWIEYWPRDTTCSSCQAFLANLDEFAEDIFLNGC

Row | Protein | C2 Western blot of plasma from rats dosed IV with the protease [1] | hemolysis (OD415) by protease-preincubated purified complement protein added back to the corresponding depleted sera (Complement C4 (human)) | hemolysis (OD415) by protease-preincubated purified complement protein added back to the corresponding depleted sera (Complement C5 (human))
1 | modified MT-SP1 CB252 (Y146E/K224N) protease domain (protein) VVGGTDADEGEWPWQVSLHALGQGHICGASLISPNWLVSAAHCYIDDRGFRYSDPTQWTAFLGLHDQSQRSAPGVQERRLKRIISHPFFNDFTFDYDIALLELEKPAEYSSMVRPICLPDASHVFPAGKAIWVTGWGHTQEGGTGALILQKGEIRVINQTTCENLLPQQITPRMMCVGFLSGGVDSCQGDSGGPLSSVEADGRIFQAGVVSWGDGCAQRNNPGVYTRLPLFRDWIKENTGV | CB252 showed a greater cleavage of C2 as there was little detectable C2 present in the plasma samples as assessed by Western Blot even after only 5 minutes following injection, with no detectable C2 present at 60 or 120 minutes after injection | showed no decreased hemolysis as compared to normal sera or the no protease control | showed no decreased hemolysis as compared to normal sera or the no protease control
2 | modified MT-SP1 CB377 (Y146E/Q175D/K224N) protease domain (protein) VVGGTDADEGEWPWQVSLHALGQGHICGASLISPNWLVSAAHCYIDDRGFRYSDPTQWTAFLGLHDQSQRSAPGVQERRLKRIISHPFFNDFTFDYDIALLELEKPAEYSSMVRPICLPDASHVFPAGKAIWVTGWGHTQEGGTGALILQKGEIRVINQTTCENLLPQDITPRMMCVGFLSGGVDSCQGDSGGPLSSVEADGRIFQAGVVSWGDGCAQRNNPGVYTRLPLFRDWIKENTGV | CB377 also showed diminished C2 levels as compared to vehicle control at early time points, however, by 60 minutes and 120 minutes the levels of C2 were comparable to those from vehicle control samples | showed no decreased hemolysis as compared to normal sera or the no protease control | showed no decreased hemolysis as compared to normal sera or the no protease control
